Test results as given in paper PMC4621360 (eLife, 2015).

Biological target: T1, FG-N, MGT-Nsp1(48–172)-… (S. cerevisiae)
T1 construct: added N-terminal residues; Nsp1, FG nucleoporin, N-terminal Asn-rich segment of low charge with irregularly spaced FG repeats, residues 48-172; Isotope-labelled for NMR; source: E. coli BL21DE3 Gold, purified (8 M urea throughout, Talon resin); also observed inside living E. coli
Test: NMR titration; HSQC test of reversibility in buffer A; FG-N 50 μM, Kap95 added to 25 μM, then diluted with more FG-N
Conditions: both partners purified

B1: Kap95 (natural protein, S. cerevisiae)
chain: MSTAEFAQLLENSILSPDQNIRLTSETQLKKLSNDNFLQFAGLSSQVLIDENTKLEGRILAALTLKNELVSKDSVKTQQFAQRWITQVSPEAKNQIKTNALTALVSIEPRIANAAAQLIAAIADIELPHGAWPELMKIMVDNTGAEQPENVKRASLLALGYMCESADPQSQALVSSSNNILIAIVQGAQSTETSKAVRLAALNALADSLIFIKNNMEREGERNYLMQVVCEATQAEDIEVQAAAFGCLCKIMSLYYTFMKPYMEQALYALTIATMKSPNDKVASMTVEFWSTICEEEIDIAYELAQFPQSPLQSYNFALSSIKDVVPNLLNLLTRQNEDPEDDDWNVSMSAGACLQLFAQNCGNHILEPVLEFVEQNITADNWRNREAAVMAFGSIMDGPDKVQRTYYVHQALPSILNLMNDQSLQVKETTAWCIGRIADSVAESIDPQQHLPGVVQACLIGLQDHPKVATNCSWTIINLVEQLAEATPSPIYNFYPALVDGLIGAANRIDNEFNARASAFSALTTMVEYATDTVAETSASISTFVMDKLGQTMSVDENQLTLEDAQSLQELQSNILTVLAAVIRKSPSSVEPVADMLMGLFFRLLEKKDSAFIEDDVFYAISALAASLGKGFEKYLETFSPYLLKALNQVDSPVSITAVGFIADISNSLEEDFRRYSDAMMNVLAQMISNPNARRELKPAVLSVFGDIASNIGADFIPYLNDIMALCVAAQNTKPENGTLEALDYQIKVLEAVLDAYVGIVAGLHDKPEALFPYVGTIFQFIAQVAEDPQLYSEDATSRAAVGLIGDIAAMFPDGSIKQFYGQDWVIDYIKRTRSGQLFSQATKDTARWAREQQKRQLSL
notes: Kap95, nuclear transport factor; also called TF; transport factor; source: prepared as previously described (Tetenbaum-Novatt et al., 2012)
  binding result: binds
